Test [1] addresses Raji肿瘤细胞核抗原 (Raji肿瘤细胞核提取物 / 固定Raji细胞). As to the kind of experiment: antigen binding activity, table 2; this molecule is the reference; method not described.
The target is the same in test [2]. As to the kind of experiment: flow cytometry on paraformaldehyde-fixed Raji cells; 5 ul of 1 mg/ml, anti-human IgG-FITC; first of three values.
Test [3] shares this target. As to the kind of experiment: flow cytometry on paraformaldehyde-fixed Raji cells; 5 ul of 1 mg/ml, anti-human IgG-FITC; third of three values. In general terms: In flow cytometry, cells or beads pass a laser one at a time.
For test [4] the target is unchanged. The test is described as follows: flow cytometry on paraformaldehyde-fixed Raji cells; 5 ul of 1 mg/ml, anti-human IgG-FITC; second of three values.
The target is the same in test [5]. As to the kind of experiment: antigen binding activity, table 2, against rhTNT-IL2 (IgG1) as control; method not described.

With “rhTNT-IL2融合蛋白 (重组人肿瘤坏死治疗单抗-白细胞介素2融合蛋白, IgG1, 连接肽AAAGGGS, 全长IL2) (antibody)”, in test [1], the 融合蛋白抗原结合活性 worked out at 100%. For the same substance, the 特异结合活性 amounted to 98.2% in test [2], 98.6% in test [3] and 98.3% in test [4]. In test [5], “肿瘤坏死治疗单抗-白细胞介素2融合蛋白, IgG1重链恒定区, IL2(Q22-C58) (antibody)” showed a 融合蛋白抗原结合活性 of 100%. Still for that read-out and setting: the figure for “肿瘤坏死治疗单抗-白细胞介素2融合蛋白, IgG2重链恒定区, IL2(Q22-C58) (antibody)” is 100%. The same measure, in the same setting: then “肿瘤坏死治疗单抗-白细胞介素2融合蛋白, IgG2重链恒定区, 全长IL2 (antibody)”, with 100%; and “肿瘤坏死治疗单抗-白细胞介素2融合蛋白, IgG3重链恒定区, IL2(Q22-C58) (antibody)”, with 100%. Same read-out and setting: then “肿瘤坏死治疗单抗-白细胞介素2融合蛋白, IgG3重链恒定区, 全长IL2 (antibody)”, with 100%; and “肿瘤坏死治疗单抗-白细胞介素2融合蛋白, IgG4重链恒定区, IL2(Q22-C58) (antibody)”, with 100%.

The substance “肿瘤坏死治疗单抗-白细胞介素2融合蛋白, IgG4重链恒定区, 全长IL2 (antibody)” gave a 融合蛋白抗原结合活性 in test [5] of 100%.

The values are drawn from CN1709911A.
